Laboratory results from patent US20260116956A1, “ANTIBODY BASED TREATMENT TO REDUCE GUT BACTERIAL GLYCAN AND ASSOCIATED BACTERIA” (priority 2022, published 2026).
Changes are numbered by the printed parent chain. Like-named read-outs stand apart in the source and are kept apart here.

B1: mAb 33.2.2: murine monoclonal anti-R. gnavus lipoglycan antibody; VH SEQ ID NO: 4, VL SEQ ID NO: 9 (antibody, V domains shown)
VH: EVQLQESGPSLVKPSQTLSLTCSVTGDSITSGYWNWIRKFPGNKLEYLGYINYSGSTYYNPSLRSRISITRDTSKNQYYLQLNAVTTEDTATYYCARYYYHDDSYAMDNWGQGTSVTVSS
VL: DIQMNQSPSSLSASLGDTITITCHASQNINVWLSWFQQKPGNIPKLLIYKASNLHTGVPSRFSGTGSGTGFTLTISSLQPEDIATYYCQQGQSYPLTFGAGTKLELK
B2: mAb 34.2.2: murine monoclonal anti-R. gnavus lipoglycan antibody; VH SEQ ID NO: 13, VL SEQ ID NO: 15 (antibody, V domains shown)
VH: B1 VH with L48M, S56T, R64K, A84S, H101Y, D103S, N109Y
VL: B1 VL with T65S

How the values were obtained:
[1] = test system: intestinal permeability of RG strain colonized mice; settings: 0.15 mg/ml in drinking water, 10 days
Method: For each group mean+/−standard deviation (SD) (FIG. 9A). […] For the bottom panels, significance was tested by paired t test. *p<0.05 was considered statistically significant.
In vivo assay of intestinal permeability. To assess intestinal permeability, after a 4-hours fasting from food and water, mice were orally gavaged with 4,000-Da fluorescein (FITC)-dextran (FD4) (Sigma-Aldrich, St. Louis, MO) (250 mg/kg body weight) in doses of 200 μl, and blood was collected 3 hours later. The concentration of the FD4 was determined using a fluorimeter with an excitation wavelength of 490 nm and an emission wavelength of 530 nm. To assess concentration, FD4 in serum was then serially diluted to establish a standard curve.
Leaky gut recovery studies. Zonulin antagonist, larazotide acetate (known as AT-1001, or INN-202), was purchased from BOC Sciences, NY. Individual neonatally-colonized littermates from SPF mice, colonized with different RG strains, were retested after FD4 challenge, and those with abnormal levels then each received 0.15 mg/ml of the zonulin antagonist in drinking water, which was refreshed every day, for 10 consecutive days. After 24 hours rest, intestinal permeability was then retested.

[2] = test system: purified LG from the S47-18 strain; assay: Direct binding ELISA, purified lipoglycan from S47-18 strain; set-up: species or system Ruminococcus gnavus; settings: antigen coated on ELISA plate
Method: (§1) In this assay, LG or nuclease-treated RG strain extracts were precoated overnight onto the well, then after blocking with bovine serum albumin, the mAbs, or isotype control at 1 μg/ml were incubated for 4 hours, then washed and developed (see below-described methods) (FIG. 15A). Immunoblot with mAb 33.2.3 (FIG. 15B) and immunoblot with 34.2.2 mAb (FIG. 15C), detect antigenically related LG oligobands in extracts of R. gnavus strains isolated from active Lupus nephritis strains. In each panel is shown samples of purified lipoglycan from the Lupus S47-18 strain, and the RG2 strain of R. gnavus. […]
(§2) Assays of antigen-reactive IgG antibodies. […] For ELISA bound IgG antibodies were detected with Fc-gamma-specific anti-murine IgG HRP (eBioscience, San Diego CA), and for multiplex bead-based assay with anti-mouse IgG (Fc-specific) F(ab′)2 PE (Jackson ImmunoResearch, West Grove PA). Data were acquired on a Magpix instrument (Luminex) and reported as mean fluorescence intensity (MFI) values, as previously described (Pelzek et al., 2017; Pelzek et al., 2018a; Radke et al., 2018). Plasma zonulin were quantitated with a commercial ELISA Kit. […]
(§3) Direct binding ELISA. […] Binding was detected with goat anti mouse IgG HRP conjugated at 1:10,000 (Jackson ImmunoResearch), then TMB substrate was added to develop the plate.

[3] = test system: purified LG from the RG2 strain; assay: Direct binding ELISA, purified lipoglycan from RG2 strain; set-up: species or system Ruminococcus gnavus; settings: antigen coated on ELISA plate
Method: (§4) In this assay, LG or nuclease-treated RG strain extracts were precoated overnight onto the well, then after blocking with bovine serum albumin, the mAbs, or isotype control at 1 μg/ml were incubated for 4 hours, then washed and developed (see below-described methods) (FIG. 15A). Immunoblot with mAb 33.2.3 (FIG. 15B) and immunoblot with 34.2.2 mAb (FIG. 15C), detect antigenically related LG oligobands in extracts of R. gnavus strains isolated from active Lupus nephritis strains. In each panel is shown samples of purified lipoglycan from the Lupus S47-18 strain, and the RG2 strain of R. gnavus. At left, extracts of whole bacteria are shown for the RG1 strain (from a healthy donor), and the Lupus-derived strains; S107-48, S107-86, S47-18, and for the RG2 strain.
(§5) Assays of antigen-reactive IgG antibodies. A custom multiplex bead-based array for the Magpix platform (Luminex, Austin TX) was created by coupling a variety of highly purified thymic native DNAs, purified cell wall lipoglycan (LG) from the RG2 strain (i.e., IgG anti-RG2 LG (formerly termed LG3) (Azzouz et al., 2019)), and the Lupus RG strain S47-18 (i.e., IgG anti-S47-18 strain LG), recombinant S. aureus proteins, endotoxins, and other bacterial antigens and control ligands, to individual microspheres, adapting the manufacturer's protocol and previous reports (Pelzek et al., 2017; Pelzek et al., 2018b; Radke et al., 2018). For antigen-reactive IgG detection, 1,000 microspheres per analyte per well were premixed, sonicated, and then diluted with addition of 100 μl of serum, as indicated. For ELISA bound IgG antibodies were detected with Fc-gamma-specific anti-murine IgG HRP (eBioscience, San Diego CA), and for multiplex bead-based assay with anti-mouse IgG (Fc-specific) F(ab′)2 PE (Jackson ImmunoResearch, West Grove PA). Data were acquired on a Magpix instrument (Luminex) and reported as mean fluorescence intensity (MFI) values, as previously described (Pelzek et al., 2017; Pelzek et al., 2018a; Radke et al., 2018). Plasma zonulin were quantitated with a commercial ELISA Kit. (MyBioSource, San Diego CA.).
(§6) Direct binding ELISA. To detect the reactivity of the murine monoclonal antibodies (mAb) […] and mAb 34.2.2 with the different RG strains, the ELISA plates were coated with the bacterial extracts from RG2, S47-18, S107-48, S107-86, RG1 as well as with the purified lipoglycan from the strains RG2 and S47-18. Next, the murine monoclonal antibodies were added at two concentrations (at 100 ng/ml and 25 ng/ml) in duplicate, incubated for 2 h at RT. Binding was detected with goat anti mouse IgG HRP conjugated at 1:10,000 (Jackson ImmunoResearch), then TMB substrate was added to develop the plate.

[4] = test system: bacterial extract of the RG2 strain (CC55_001C); assay: Direct binding ELISA, RG2 bacterial extract; set-up: species or system Ruminococcus gnavus; settings: extract coated on ELISA plate
Method: as §4, §5, §6

[5] = test system: bacterial extract of Lupus strain S47-18; assay: Direct binding ELISA, S47-18 bacterial extract; set-up: species or system Ruminococcus gnavus; settings: extract coated on ELISA plate
Method: as §4, §5, §6

[6] = test system: bacterial extract of Lupus strain S107-48; assay: Direct binding ELISA, S107-48 bacterial extract; set-up: species or system Ruminococcus gnavus; settings: extract coated on ELISA plate
Method: as §1, §2, §3

[7] = test system: bacterial extract of Lupus strain S107-86; assay: Direct binding ELISA, S107-86 bacterial extract; set-up: species or system Ruminococcus gnavus; settings: extract coated on ELISA plate
Method: as §4, §5, §6

[8] = test system: extract of the RG1 type strain (ATCC29149); assay: Direct binding ELISA, RG1 bacterial extract; set-up: species or system Ruminococcus gnavus; settings: extract coated on ELISA plate; strain lacks the lipoglycan
Method: as §1, §2, §3

[9] = test system: purified LG from the S47-18 strain; assay: Immunoblot, purified lipoglycan from S47-18 strain; assay type: binding, Ruminococcus gnavus
Method: as §4
(§7) Immunoblotting. Electrophoretic separation used Bis-Tris mini gels (Novex, Thermo Fisher) with bacterial extracts loaded at the same concentration, then transferred to membranes, which were incubated with sera diluted at 1:100, and incubated overnight at 4° C. For detection, anti-human IgG biotin conjugated (Jackson ImmunoResearch Labs, USA) was added and developed by IRDye® 800CW Streptavidin (LI-COR®).

[10] = test system: purified LG from RG2 (RG2-LG); assay: Immunoblot, purified lipoglycan from RG2 strain; assay type: binding, Ruminococcus gnavus
Method: (§8) LPS from a Pseudomonas species.
as §4, §7

[11] = test system: extract of the RG2 strain; assay: Immunoblot, RG2 extract; assay type: binding, Ruminococcus gnavus
Method: as §8, §4
(§9) To generate RG-specific monoclonal antibodies, 10 BALB/c mice were immunized with extract of the (CC55_001C), termed RG2 strain, emulsified in complete Freund's adjuvant and then boosted with lipoglycan (LG) purified from the Lupus S47-18 strain emulsified in incomplete Freund's adjuvant. The spleen from the mouse with the strongest post-immunization was fused with the NS-1 myeloma cells.
(§10) Immunoblotting. […]

[12] = test system: extract of Lupus RG strain S47-18; assay: Immunoblot, S47-18 extract; assay type: binding, Ruminococcus gnavus
Method: as §8, §4, §9, §10

[13] = test system: extract of Lupus RG strain S107-48; assay: Immunoblot, S107-48 extract; assay type: binding, Ruminococcus gnavus
Method: as §8, §4, §9, §10

[14] = test system: extract of Lupus RG strain S107-86; assay: Immunoblot, S107-86 extract; assay type: binding, Ruminococcus gnavus
Method: as §4, §7

extract of RG1 strain = assay: Immunoblot, RG1 extract; assay type: binding, Ruminococcus gnavus; settings: strain from a healthy donor, lacks the lipoglycan
Method: as §8, §4, §9, §10

| Molecule | ELISA reactivity with purified LG from S47-18 strain [2] | ELISA reactivity with purified LG from RG2 strain [3] | ELISA reactivity with extract of RG2 strain [4] | ELISA reactivity with extract of Lupus strain S47-18 [5] | ELISA reactivity with extract of Lupus strain S107-48 [6] | ELISA reactivity with extract of Lupus strain S107-86 [7] | ELISA reactivity with RG1 type strain extract [8] | Immunoblot reactivity with purified LG from S47-18 strain [9] | Immunoblot reactivity with purified LG from RG2 strain [10] | Immunoblot reactivity with LG oligobands in RG2 extract [11] | Immunoblot reactivity with LG oligobands in S47-18 extract [12] | Immunoblot reactivity with LG oligobands in S107-48 extract [13] | Immunoblot reactivity with LG oligobands in S107-86 extract [14] | Immunoblot reactivity with RG1 extract (extract of RG1 strain) | other results |
| --- | --- | --- | --- | --- | --- | --- | --- | --- | --- | --- | --- | --- | --- | --- | --- |
| larazotide acetate |  |  |  |  |  |  |  |  |  |  |  |  |  |  | Gut barrier function (plasma FD4 after challenge), before vs after treatment ([1]; Lupus S47-18 strain colonized mice, p=0.01): normalized; Gut barrier function (plasma FD4 after challenge), before vs after treatment ([1]; Lupus S107-48 strain colonized mice, p=0.01): normalized; Gut barrier function (plasma FD4 after challenge), before vs after treatment ([1]; RG2 strain colonized mice, p=0.03): normalized |
| B1 | strongly react | strongly react | reactive | reactive | reactive | reactive | non-reactive | bound | bound | recognized oligoband antigen | recognized oligoband antigen | recognized oligoband antigen | recognized oligoband antigen | no reactivity | ELISA reactivity with purified LG from RG2 strain ([3]; listed as 33.2.3): reactivity; ELISA reactivity with extract of RG2 strain ([4]; listed as 33.2.3): reactivity; ELISA reactivity with extract of Lupus strain S47-18 ([5]; listed as 33.2.3): reactivity; ELISA reactivity with extract of Lupus strain S107-86 ([7]; listed as 33.2.3): reactivity |
| B2 | strongly react | strongly react | reactive | reactive | reactive | reactive | non-reactive | bound | bound | recognized oligoband antigen | recognized oligoband antigen | recognized oligoband antigen | recognized oligoband antigen | no reactivity | ELISA reactivity with purified LG from RG2 strain ([3]; listed as 34.2.2): reactivity; ELISA reactivity with extract of RG2 strain ([4]; listed as 34.2.2): reactivity; ELISA reactivity with extract of Lupus strain S47-18 ([5]; listed as 34.2.2): reactivity; ELISA reactivity with extract of Lupus strain S107-86 ([7]; listed as 34.2.2): reactivity |
